# Target: T1, Human CD137 ECD (human)
# T1 construct: also called 4-1BB
# Assay: single mutant vs template dBBDu183H
# T1 sequence (chain, as listed by the source limits assumed): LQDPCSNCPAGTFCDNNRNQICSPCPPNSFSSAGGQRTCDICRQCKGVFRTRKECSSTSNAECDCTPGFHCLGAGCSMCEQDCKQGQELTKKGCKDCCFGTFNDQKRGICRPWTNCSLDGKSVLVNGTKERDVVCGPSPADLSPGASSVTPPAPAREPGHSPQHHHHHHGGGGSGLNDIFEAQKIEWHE
row,Binder,fold change of affinity [fold]
1,"H183/L072 VH I51S (antibody, name in Kabat numbering, V domains shown) VH: QVQLVESGGGLVQPGRSLRLSCAASGFTFSNAWMHWVRQAPGKGLEWVAQSKDKGNAYAAYYAPSVKGRFTISRDDSKNSIYLQMNSLKTEDTAVYYCHYVHYASASTVLPAFGVDAWGQGTTVTVSS VL: DIVMTQSPLSLPVTPGEPASISCQASQELVHMNRNTYLHWYQQKPGQAPRLLIYKVSNRFPGVPDRFSGSGSGTDFTLKISRVEAEDVGVYYCAQGTSVPFTFGQGTKLEIK",0.4
2,"H183/L072 VH I51V (antibody, name in Kabat numbering, V domains shown) VH: QVQLVESGGGLVQPGRSLRLSCAASGFTFSNAWMHWVRQAPGKGLEWVAQVKDKGNAYAAYYAPSVKGRFTISRDDSKNSIYLQMNSLKTEDTAVYYCHYVHYASASTVLPAFGVDAWGQGTTVTVSS VL: DIVMTQSPLSLPVTPGEPASISCQASQELVHMNRNTYLHWYQQKPGQAPRLLIYKVSNRFPGVPDRFSGSGSGTDFTLKISRVEAEDVGVYYCAQGTSVPFTFGQGTKLEIK",1
3,"H183/L072 VH K52M (antibody, name in Kabat numbering, V domains shown) VH: QVQLVESGGGLVQPGRSLRLSCAASGFTFSNAWMHWVRQAPGKGLEWVAQIMDKGNAYAAYYAPSVKGRFTISRDDSKNSIYLQMNSLKTEDTAVYYCHYVHYASASTVLPAFGVDAWGQGTTVTVSS VL: DIVMTQSPLSLPVTPGEPASISCQASQELVHMNRNTYLHWYQQKPGQAPRLLIYKVSNRFPGVPDRFSGSGSGTDFTLKISRVEAEDVGVYYCAQGTSVPFTFGQGTKLEIK",0.3
4,"H183/L072 VH K52N (antibody, name in Kabat numbering, V domains shown) VH: QVQLVESGGGLVQPGRSLRLSCAASGFTFSNAWMHWVRQAPGKGLEWVAQINDKGNAYAAYYAPSVKGRFTISRDDSKNSIYLQMNSLKTEDTAVYYCHYVHYASASTVLPAFGVDAWGQGTTVTVSS VL: DIVMTQSPLSLPVTPGEPASISCQASQELVHMNRNTYLHWYQQKPGQAPRLLIYKVSNRFPGVPDRFSGSGSGTDFTLKISRVEAEDVGVYYCAQGTSVPFTFGQGTKLEIK",0.2
5,"H183/L072 VH I51T (antibody, name in Kabat numbering, V domains shown) VH: QVQLVESGGGLVQPGRSLRLSCAASGFTFSNAWMHWVRQAPGKGLEWVAQTKDKGNAYAAYYAPSVKGRFTISRDDSKNSIYLQMNSLKTEDTAVYYCHYVHYASASTVLPAFGVDAWGQGTTVTVSS VL: DIVMTQSPLSLPVTPGEPASISCQASQELVHMNRNTYLHWYQQKPGQAPRLLIYKVSNRFPGVPDRFSGSGSGTDFTLKISRVEAEDVGVYYCAQGTSVPFTFGQGTKLEIK",0.3

# The next lines start with the values.
row,fold change of affinity [fold],Binder
1,0.3,"H183/L072 VH K52Q (antibody, name in Kabat numbering, V domains shown) VH: QVQLVESGGGLVQPGRSLRLSCAASGFTFSNAWMHWVRQAPGKGLEWVAQIQDKGNAYAAYYAPSVKGRFTISRDDSKNSIYLQMNSLKTEDTAVYYCHYVHYASASTVLPAFGVDAWGQGTTVTVSS VL: DIVMTQSPLSLPVTPGEPASISCQASQELVHMNRNTYLHWYQQKPGQAPRLLIYKVSNRFPGVPDRFSGSGSGTDFTLKISRVEAEDVGVYYCAQGTSVPFTFGQGTKLEIK"
2,0.1,"H183/L072 VH K52L (antibody, name in Kabat numbering, V domains shown) VH: QVQLVESGGGLVQPGRSLRLSCAASGFTFSNAWMHWVRQAPGKGLEWVAQILDKGNAYAAYYAPSVKGRFTISRDDSKNSIYLQMNSLKTEDTAVYYCHYVHYASASTVLPAFGVDAWGQGTTVTVSS VL: DIVMTQSPLSLPVTPGEPASISCQASQELVHMNRNTYLHWYQQKPGQAPRLLIYKVSNRFPGVPDRFSGSGSGTDFTLKISRVEAEDVGVYYCAQGTSVPFTFGQGTKLEIK"
3,0,"H183/L072 VH I51Y (antibody, name in Kabat numbering, V domains shown) VH: QVQLVESGGGLVQPGRSLRLSCAASGFTFSNAWMHWVRQAPGKGLEWVAQYKDKGNAYAAYYAPSVKGRFTISRDDSKNSIYLQMNSLKTEDTAVYYCHYVHYASASTVLPAFGVDAWGQGTTVTVSS VL: DIVMTQSPLSLPVTPGEPASISCQASQELVHMNRNTYLHWYQQKPGQAPRLLIYKVSNRFPGVPDRFSGSGSGTDFTLKISRVEAEDVGVYYCAQGTSVPFTFGQGTKLEIK"
